This note sets out measurements from US12241099B2, “Peptide therapeutics for treating Alzheimer's disease and related conditions” (The Board of Regents of the University of Oklahoma, priority 2018, dated 2025).

For series [1], the target named is T1, Aβ1-42 (Homo sapiens, UniProt P05067). Description: ELISA binding of Aβ1-42 to plate-coated neutrophil proteins and derived peptides. As to conditions: for binding of Aβ1-42: 150 nM Aβ1-42, plate coated with protein/peptide at 5 μg/ml, no protease inhibitor; for binding of Aβ1-42 on addition of antiproteases: 1 mM PMSF (CAP37, NE) or 125 μM chymostatin (CG). The procedure:
CAP37, NE, and CG were purified from human neutrophils and purchased from Athens Research and Technology. BSA was from Sigma Aldrich. CAP37-derived peptides were synthesized by CS Bio Co with a purity >95%. Maxisorp plates from Nunc were coated with 100 μl neutrophil protein, peptide, or BSA diluted at 5 μg/ml in PBS with or without 1 mM PMSF purchased from Sigma Aldrich (for experiments with CAP37, NE, and BSA) or ±125 μM chymostatin purchased from Santa Cruz (for experiments with CG and BSA). Plate coating was done at room temperature for 2 hours with shaking and then at 4° C. overnight. Plates were washed three times in PBST (PBS+0.05% tween), then blocked with 3% BSA in PBST for 1 hour at room temperature with shaking. Plates were washed 3× in PBST, and 150 nM Aβ1-42 (purchased from Bachem and reconstituted in 1 mM NaOH) was added in 0.1% BSA in PBST and incubated 70 minutes at 37° C. Plates were then washed 4 times with PBST and monoclonal mouse anti-amyloid precursor protein/amyloid beta antibody, purchased from Cell Signaling Technology was added at a 1:500 dilution in 1% BSA in PBST and incubated for 1 hour at room temperature with shaking. Plates were washed 4× in PBST and donkey anti mouse HRP-conjugated secondary antibody from Jackson ImmunoResearch Laboratories was added at 1:10,000 in PBST and incubated 1 hour at room temperature with shaking, then washed 4 times in PBST. […] Sulfuric acid (5N) was added to each well to stop the reaction, and the absorbance at 492 nm was read on a Biotek Synergy II plate reader.
Background: ELISA stands for enzyme-linked immunosorbent assay.

In series [2] the target is T1, Aβ1-42. In words: Amyloid Beta (1-42) Thioflavin T fibrillation (aggregation) assay. It is filed as biochemical. Further details: used to monitor the formation of Aβ1-42 peptide fibrils; purchased Anaspec. As to conditions: for inhibition of Aβ1-42 fibrillation (in words): increasing concentrations of peptide, Rfu; for molar ratio inhibitor/Aβ1-42 corresponding to IC50 of fibrillation: ratio at IC50. As to the method:
The Amyloid Beta (1-42) Thioflavin T Aggregation Kit was purchased from Anaspec and used to monitor the formation of Aβ1-42 peptide fibrils, according to the manufacturer's instructions, with some modifications. Thioflavin T dye was diluted to 250 μM in fibrillation buffer A and kept in the dark until use. […] Neutrophil proteins were tested in the absence and presence of protease inhibitors. […] Chymostatin was dissolved in DMSO and used at 125 μM final concentration in reactions with CG. Reactions were pipetted up and down twice in the wells with a multichannel pipette to ensure mixing, and fluorescence (ΔEX=440 nm, ΔEm=485 nm) was read every 5 minutes for 3 hours on a BioTek Synergy 2 plate reader with Gen 5 software, with a sensitivity set at 65.

The subject of series [3] is mouse neuroblastoma cell line Neuro-2a. Description: Neurotoxicity assay of Aβ1-42 fibrils/oligomers (trypan blue cell death). It is filed as cell-based. As to conditions: for effect on Aβ1-42 oligomer toxicity: oligomers formed 15 min in presence of increasing concentrations; for effect on Aβ1-42 oligomer toxicity / effect on toxicity of Aβ1-42 fibrils: 18 μM Aβ1-42 on cells, 24 hours; for effect on toxicity of Aβ1-42 fibrils: protein at IC50 of fibrillation pre-incubated with Aβ1-42 24 hours in fibrillation conditions; for concentration at which significant inhibition of oligomer toxicity starts: tested at 0.5, 1, 2 and 4-fold the fibrillation IC50. The procedure: A mouse neuroblastoma cell line Neuro-2a from ATCC was used for these experiments. Cells were grown and seeded in 96 well plates at 20,000 cells per well in complete medium (MEM α, nucleosides, no phenol red from Gibco, with 10% heat inactivated fetal bovine serum from Gibco, and penicillin/streptomycin from Lonza). At 24 hours after seeding, cells were washed with warmed MEM α, and then incubated in 90 μl MEM α+N2 Supplements+20 μl test sample (Aβ1-42 prepared as described below). Cells were incubated another 24 hours at 37° C., and then dislodged by pipetting up and down vigorously. 10 μl of cells were added to 10 μl trypan blue dye (0.4% solution) from BioRad, mixed and counted in a BioRad TC20 cell counter. The percent of living and dead cells was recorded for each well. In the case of the water and Triton X100 controls, 20 μl MEM α+N2 Supplements was added instead of the test sample and, just before counting the cells, 20 μl of medium was removed and replaced with 20 μl water or Triton X100 at a final concentration of 0.1%.
Monomeric Aβ1-42 (hexafluoroisopropanol treated Aβ1-42) from Bachem was reconstituted at 5 mM in anhydrous DMSO. Untreated Aβ1-42 from CS Bio was also used in these experiments. It was first treated with 1 mM in hexafluoroisopropanol from Sigma Aldrich, incubated 30 min at room temperature, and left open to dry in the fume hood overnight. It was then vacuum desiccated for 1 hour at room temperature. Dry films of Aβ1-42 were stored at −20° C. until use to keep it under a monomeric form. Aβ1-42 from CS Bio was also reconstituted in anhydrous DMSO at 5 mM before use.
To prepare the fibril and oligomer test samples, monomeric Aβ1-42 was placed under conditions favoring either formation of fibrils or oligomers. To form fibrils, 100 μM Aβ1-42 was added to Anaspec fibrillation buffer A±neutrophil protein, and incubated at 37° C. 24 hours before addition to the cells at a final concentration of 18 μM. Neutrophil proteins were used at Aβ/Protein ratios that led to 50% inhibition of fibrillation (IC50), previously determined for each protein in the fibrillation assay. To form oligomers, MEM α+N2 Supplements was used instead of the fibrillation buffer A±increasing concentrations of neutrophil protein or CAP37-derived peptide. Each mixture was then added to a tube containing freshly prepared Aβ1-42 in DMSO at a final concentration of 100 μM, and incubated 15 min at room temperature. These test samples were then tested on the cells at a final concentration of 18 μM.
Oligomers were formed by incubating 100 μM Aβ1-42 in MEMα+N2 Supplements at 4° C. for 3 days. […] Finally, these oligomers were added to neurons at a final concentration of 18 μM, and percent cell death was measured at 24 h.

Residues, ends and D or L forms follow the SMILES beside them. No end group written: not given here.

T1 sequence (P05067 672-713 limits assumed): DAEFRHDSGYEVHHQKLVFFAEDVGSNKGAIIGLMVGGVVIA

Take “95-122 5RMP: 95-122 with two AEEA mini-PEG molecules and 4 arginines at the N-terminal end and one arginine at the C-terminal end (RRRRLDREANLTSSVTILPLPLQNATVEAGTRR; also: two AEEA mini-PEG molecules, place not given here)”: in the series with Aβ1-42 [1], the “binding of Aβ1-42” value is listed as “does not interact”. Further, the “inhibition of Aβ1-42 fibrillation (in words)” value (from here on “inhibition … (in words)”) in the series with Aβ1-42 [2] was “did not inhibit fibrillation”.

Consider “95-122: wild-type CAP37-derived peptide 95-122 (LDREANLTSSVTILPLPLQNATVEAGTR)”, for which, in the series with Aβ1-42 [1], the “binding of Aβ1-42” value is “did not bind”.

Take `CSCC[C@H](NC(=O)[C@H](CO)NC(=O)[C@@H](NC(=O)[C@H](CCCNC(=N)N)NC(=O)CNC(=O)[C@H](Cc1c[nH]c2ccccc12)NC(=O)CNC(=O)[C@H](C)NC(=O)[C@@H](NC(=O)[C@@H](NC(=O)[C@H](CS)NC(=O)[C@H](CC(C)C)NC(=O)[C@@H](NC(=O)CN)[C@@H](C)O)[C@@H](C)O)C(C)C)C(C)C)C(=O)N[C@@H](CCCNC(=N)N)C(=O)N[C@@H](CCCNC(=N)N)C(=O)NCC(=O)N[C@H](C(=O)N[C@@H](CCCNC(=N)N)C(=O)N[C@H](C(=O)N[C@@H](CC(C)C)C(=O)N[C@@H](CCCNC(=N)N)C(=O)N[C@@H](CCC(=O)O)C(=O)N[C@H](C(=O)N[C@@H](CCC(N)=O)C(=O)N[C@@H](CC(C)C)C(=O)O)C(C)C)[C@@H](C)O)[C@@H](C)O` [CG119-144 D137R] (H-GTLCTVAGWGRVSMRRGTRTLREVQL-OH; N-terminus and C-terminus assumed): at Aβ1-42 [1], the “binding of Aβ1-42” value is on record as “increased the binding”. Besides, the “effect on Aβ1-42 oligomer toxicity” value in series [3] is on record as “significantly decrease”. For the same molecule, the “effect on neurotoxicity of preformed Aβ1-42 oligomers” value in series [3] (oligomers formed first (3 days, 4° C.), then incubated with peptide at 2×IC50 for 3 days, 18 μM on neurons, cell death at 24 h) is “significantly reversed”. Besides, at Aβ1-42 [2], the “inhibition … (in words)” value was “inhibitory effects” and the “molar ratio inhibitor/Aβ1-42 corresponding to IC50 of fibrillation” value is listed as 1/3.

With “CG119-144 ΔR129V130: mutant CG-derived peptide, CG119-144 with positively charged R129 (and V130) deleted (GTLCTVAGWGSMRRGTDTLREVQL)”, in the series with Aβ1-42 [1], the “binding of Aβ1-42” value is listed as “abolished the binding”. Also, the “inhibition … (in words)” value in the series with Aβ1-42 [2] is reported as “no inhibitory effect”.

As to “CG: cathepsin G, full-length, purified from human neutrophils”, in the series with Aβ1-42 [1], the “binding of Aβ1-42” value is listed as “stronger” and the “binding of Aβ1-42 on addition of antiproteases” value (from here on “binding … of antiproteases”) is “not significantly changed”. Also, in series [3], the “effect on Aβ1-42 oligomer toxicity” value is given as “significantly inhibited”, the “effect on toxicity of Aβ1-42 fibrils” value is “significant inhibition” and the “concentration at which significant inhibition of oligomer toxicity starts” value amounted to 0.5 ×IC50.

Take “GTLCTVAGWGRVSMRRGTDTLREVQL (Completely synthesized in the lab. Amino acids 119-144 of Cathepsin G protein.) [CG119-144]”: the “binding of Aβ1-42” value with Aβ1-42 [1] is “Highest levels”. The “inhibition … (in words)” value in the series with Aβ1-42 [2] is given as “no inhibitory effect”.

“GTLCTVAGWGRVSMRRGTDTLRPRVQL (Completely synthesized in the lab. Peptide CG119-144.) [CG119-144 E141PR]”: in the series with Aβ1-42 [1], the “binding of Aβ1-42” value is given as “increased the binding”. Also, in the series with Aβ1-42 [2], the “inhibition … (in words)” value was “inhibitory effects”.

In the case of “GTRCQVAGWGSQRSGGRLSRFPRFVNV (Completely synthesized in the lab. Amino acids 120-146 of CAP37 protein.) [120-146 QR, wild-type CAP37-derived peptide, amino acids 120-146 of CAP37 protein]”, the “binding of Aβ1-42” value with Aβ1-42 [1] is listed as “binds”.

Turning to “NE: neutrophil elastase, full-length, purified from human neutrophils”, in the series with Aβ1-42 [1], the “binding of Aβ1-42” value was “almost undetectable” and the “binding … of antiproteases” value is recorded as “significantly increased”. Further, in series [3], the “effect on Aβ1-42 oligomer toxicity” value is recorded as “significantly inhibited”, the “effect on toxicity of Aβ1-42 fibrils” value is “significant inhibition” and the “concentration at which significant inhibition of oligomer toxicity starts” value is listed as 2 ×IC50.

Turning to “NQGRHFCGGALIHARFVMTAASCFQ (Completely synthesized in the lab. Amino acids 20-44 of CAP37 protein.) [20-44 CC, wild-type CAP37-derived peptide, amino acids 20-44 of CAP37 protein]”, the “binding of Aβ1-42” value in the series with Aβ1-42 [1] is “binds”.

Take “NQGRHFSGGALIHARFVMTAASCFQ (Completely synthesized in the lab. Peptide CAP3720-44C26S.) [20-44 SC, mutant CAP37-derived peptide 20-44]”: the “binding of Aβ1-42” value with Aβ1-42 [1] is “binds”.

B1: CAP37: cationic antimicrobial protein of molecular weight 37 KDa, full-length, purified from human neutrophils (protein)
chain: IVGGRKARPRQFPFLASIQNQGRHFCGGALIHARFVMTAASCFQSQNPGVSTVVLGAYDLRRRERQSRQTFSISSMSENGYDPQQNLNDLMLLQLDREANLTSSVTILPLPLQNATVEAGTRCQVAGWGSQRSGGRLSRFPRFVNVTVTPEDQCRPNNVCTGVLTRRGGICNGDGGTPLVCEGLAHGVASFSLGPCGRGPDFFTRVALFRDWIDGVLNNPGP
For the molecule B1, in the series with Aβ1-42 [1], the “binding of Aβ1-42” value was “stronger” and the “binding … of antiproteases” value is “not significantly changed”. Also, in series [3], the “effect on Aβ1-42 oligomer toxicity” value is recorded as “does not inhibit” and the “effect on toxicity of Aβ1-42 fibrils” value is recorded as “no effect”. In the series with Aβ1-42 [2], the “molar ratio inhibitor/Aβ1-42 corresponding to IC50 of fibrillation” value was 1/11.
